B1: VhGlcNAcase (Vibrio harveyi) (protein)
chain: MGGSEYRVDLVVLSEQKQNCRFGLTFHNLSDQDLNSWGLTFAFDRYILPDSVSNGQLTQIGSFCTLKPEGIVLAANHHYYCEFSIGSNPFRYYSDGFNEAMIDFVVDGQPQRAQVDVTPIVLASPYRERSDIPASLTHAQPLLPKPNHIEVSDHSFTFDEQAGVAIYTDLANSAKAWLLEELQRIHQFTLSSSNSGKIIFKSNPTLDEGAYKLKVSEESIKIEAGSSSGFTHACATLLQLLKRDEATKTMEAVCCSIIDSPRFRYRGMMLDCARHFHSVEQVKRLINLLAHYKLNTFHWHLTDDEGWRVEIKSLPQLTEIGAWRGIDETIEPQYTHLSQRYGGFYTQEEIRDVIAFAEQRGITIIPEIDVPGHCRAAIKSLPHLLIEAEDTTEYRSIQHYNDNVINPALPGSYEFIDKVLEEIAALFPAPYVHIGADEVPNGVWSKSPACQALMEQLGYTDYKELQGHFLRHAEDKLRKLGKRMLGWEEAQHGNKVSKDTVIYSWLSEEAALNCARQGFDVVLQPAQTTYLDMTQDYAPEEPGVDWANPLPLEKAYNYEPLAEVPADDPIRKRIWGIQTALWCEIINNPSRMDYMIFPRLTAMAEACWTEKQHRDWTDYLSRLKGHLPLLDLQGVNYRKPWK

System: CC(=O)N[C@H]1[C@H](Oc2ccc([N+](=O)[O-])cc2)O[C@H](CO)[C@@H](O)[C@@H]1O
Assay: purified protein
Type: biochemical, Vibrio harveyi
Conditions: 100 mM sodium phosphate pH 7.0, 37°C, 10 min, 0–500 µM substrate

In order of rising Km:
1. VhGlcNAcase (Vibrio harveyi; E438Q)  120 ± 13 µM
2. VhGlcNAcase (Vibrio harveyi; E438A)  128 ± 16 µM
3. VhGlcNAcase (Vibrio harveyi; D532A)  153 ± 9 µM
4. VhGlcNAcase (Vibrio harveyi; E584A)  178 ± 20 µM
5. VhGlcNAcase (Vibrio harveyi; D303A)  302 ± 28 µM
6. VhGlcNAcase (Vibrio harveyi; H373A)  307 ± 31 µM
7. VhGlcNAcase (Vibrio harveyi; D303N)  325 ± 30 µM
8. VhGlcNAcase (Vibrio harveyi; D437N)  339 ± 47 µM

In order of falling kcat:
1. VhGlcNAcase (Vibrio harveyi; E584A)  18 ± 0.7 s⁻¹
2. VhGlcNAcase (Vibrio harveyi; D303N)  1.8 ± 0.08 s⁻¹
3. VhGlcNAcase (Vibrio harveyi; D532A)  1.6 ± 0.03 s⁻¹
4. VhGlcNAcase (Vibrio harveyi; D303A)  1.4 ± 0.07 s⁻¹
5. VhGlcNAcase (Vibrio harveyi; H373A)  1.1 ± 0.06 s⁻¹
6. VhGlcNAcase (Vibrio harveyi; E438Q)  0.13 ± 0.005 s⁻¹
7. VhGlcNAcase (Vibrio harveyi; E438A)  0.11 ± 0.005 s⁻¹
8. VhGlcNAcase (Vibrio harveyi; D437N)  0.02 ± 0.001 s⁻¹

Substrate: CC(=O)N[C@H]1[C@H](Oc2ccc([N+](=O)[O-])cc2)O[C@H](CO)[C@@H](O)[C@@H]1O
Assay: purified protein
Conditions: 100 mM sodium phosphate pH 7.0, 37°C, 10 min, 0–500 µM substrate
Remark: another data set of the same source

In the case of B1, the Km is reported as 92 ± 6 µM.

Molecular target: T1, VhGlcNAcase (Vibrio harveyi, UniProt D9ISE0, D437A)
T1 construct: full-length nag2 (residues 1-642) plus C-terminal RSRS-His6 (10 extra residues), pQE-60, E. coli M15 (pREP4); 74 kDa expected, 76 kDa by SEC; monomer; EC 3.2.1.52
Assay: colorimetric 4-nitrophenol release at […] nm, Michaelis-Menten fit
Type: biochemical
Conditions: 100 mM sodium phosphate pH 7.0, 37°C, 10 min, 0–500 µM substrate

`CC(=O)N[C@H]1[C@H](Oc2ccc([N+](=O)[O-])cc2)O[C@H](CO)[C@@H](O)[C@@H]1O` [pNP-GlcNAc, 4-nitrophenyl N-acetyl-β-D-glucosaminide] was tested, and the Km was 390 ± 32 µM.
